Results reported in the DeepSol protein solubility set.

Assay: soluble on expression in E. coli; label from the status in PepcDB or PDB records
For “MSTQTVTIKSLGAQGDGIAHCPDGPVYVPFALPGETVAIAKVKDQGTVMSITEASADRRDPVCRHFGPEGINGTCGGCSLQHLADQPYHAFKRELVVSALRSKGLTPPVDDLVICRPGERRRAVFAARKTEKGLLLGFSQANSHHIVAIEECPVTSPGIVSRFDAIRAIGLSMVANAEPFRITVLETLSGLDISVEGIKSVNDKQRRTLTETVLAMRGIARVSLSGEILIEPQKPIIEFGGIPVSPPAGGFTQATKQAEDAMAELMLAHVGKSKRIADLFCGSGTFALRLARIGRVHAVEAEDKALKALDFAARNTQGLKPVSVEKRDLFRRPLMTSELKNYDAVVFDPPRAGAEVQCKELARSTVKKIVAVSCNPLTLARDLAILTEGGYRVTRVTPVDQFLWSPHVEAVAVLEK”, the “soluble on expression in E. coli” value was “not soluble”. With “MFHVKLTLTTMLDTMNSSAHRPVVVADVDTGIDDALAITYLGYLHRRGLIELRITTSAGNCTAEQAAANSAEIMNSLTLSDVPITPGAPKPRALPLTTTPETHGPTGLGYHTTRATIPQLSNAAAAVDLWKGADYLLVAGPATNVAWAAENAPEVLNAIPHVTFMTGAFHYPGNTTPTAEWNAWVDPHALKEALAHYRGHAVRPTICPLNVTESVLLTPQRLKQWCQRSQEPVLPILSDALRFYFEFHESVGVGYMAQIHDLAAAMVLLNRVPHTTRPGFVDVEADAELTRGTTVVDWDSNYGDHPANAQILTALQSEDVFAEFERVVLEY” the “soluble on expression in E. coli” value was “not soluble”. For “VTLLEQNPRWRLVPRGQAVNLRCILKNSQYPWMSWYQQDLQKQLQWLFTLRSPGDKEVKSLPGADYLATRVTDTELRLQVANMSQGRTLYCTCSAAPDWGASAETLYFGSGTRLTVL”, the “soluble on expression in E. coli” value was “soluble”. With “MSRLVIPSHSPNEEGNVVRVTPESAGWEYVGFEVYVLAKGQTLRKETKDQEACLVLLKGKANISTKLERWEQIGLRMDVSEKVPPYSVYIPSNDFYEVQAVTDLELAVCLAPGKGTYPARLIPPSEVGVEIRGAGNIERRVHNILPESQPADSLLVVEVFTPEGNWSSYPPHKHDQDNLPHESYLEETYYHKINPDHGFMVQRVYTDDRSIDETMVVKNGDVVLVPKGYHPVSAPPGYEGYYLNVMAGPVRTWKFHNDPDHEWVMESKLAAKQK” the “soluble on expression in E. coli” value was “not soluble”. In the case of “AIASVAFVPDWLRGKAEVNQETIQRLLEENDQLIRCIVEYQNKGRGNECVQYQHVLHRNLIYLATIADASPTSTSKAME”, the “soluble on expression in E. coli” value is reported as “soluble”. For “MSLAKIPVLEIFGPTIQGEGRVIGRKTMFVRTAGCDYRCSWCDSAFTWDGSAKGDIKLMTAEEIYDELKRIGGDLFNHVTISGGNPALIKGIQELVDLFQDKGIFSALETQGSKFQPWMTQIDDLTISPKPPSSTMTPDLKKLDEVITQCVPSSLNLKVVVFDDKDYDFAKMIHHRYPDIPFYLQVGNPYLSDSVDNHTEKLLERYEQLVDLVMQSNDMNHVYVLPQLHTLLWSNKKGVEGHHHHHH”, the “soluble on expression in E. coli” value was “soluble”. For “MFSIFKRKTKQVNPFEQGWLTDLIDIHCHLLPAVDDGSKSIEETLSLIDLLEEIGVKQHILTPHIMEEYPSNDAIFLRARFEELLAAITPDKASRLRLAAEYMLDVAFLDRLAEPLLTLGDR”, the “soluble on expression in E. coli” value was “not soluble”. In the case of “MGSDKIHHHHHHMSKHALKLIPSSTEHADVPNDCKNCGAYHLCMSLWLKTADSSLLERVVKKKQVFKRGEVLYRMGQPLEYIYVIRGGSVKTCVSTEDGQVQVMGFHAAGELLGLNAISNREHKCEARAMGVTSVCEVSVERFEELAKKDPAIQYEILKIMSAEIHHGQELLLLLGKHNAEERIAIFLLNLSRQFEQRHCSATEFTLCMSRSDIGNYLGIAEETVCRIFARFQDDGLISSEYRNVKLKDIKRLEQIANQRPQRSLRQTNVASLYF”, the “soluble on expression in E. coli” value is reported as “not soluble”. With “MSTVRSIYYRGSLEHCNYTCSYCPFGRKSVSADTTEDQEALDRFISRIGGWKYGSLRILIIPYGEAMIHRYYREGIMRLAAMPHVIGVSCQTNLSFSVSRFLDEAEAEQADVSKFRFWASYHPEMVGVGEFASKVEMLRAAGIGVCAGAVGDPSAKEQIRKLRQLLDPSVYLFVNAMQGLRKPLSEEDIRFFGEIDNLFDYDRRNAKACLDGCVGGRETLFIDRKGDMYACPRSGIRMGNFYDDSTSDFQPFCLRKVCDCYIAFSNLCDTPLRRMMGDGALWRIPERKKVEAVFFDVDGTLTDAQGRIPDRTVSVLEYMAKRLPLYLSTALPVSHAKKRLGNVFGLFSGGVFADGGLLCYGETIECVPIANPMTAGFPGCRVTRYTREGKVFKYAVLAPNTREAVRWLTELDEEAYQLYQEGRLLTVVDSKASKKNGLITLCARLGISLREVLVVGNTMHDWPMMSVAGYSCAVMDAEEKLRKLSGYVLNPDSIPVFFDILEHHHHHH” the “soluble on expression in E. coli” value was “not soluble”. For “GSSMKASSGDQGSPPCFLRFPRPVRVVSGAEAELKCVVLGEPPPVVVWEKGGQQLAASERLSFPADGAEHGLLLTAALPTDAGVYVCRARNAAGEAYAAAAVTVLEPPA”, the “soluble on expression in E. coli” value was “soluble”. For “MGSDKIHHHHHHMKKVTLLVLDGFGVGAMADCEKVKPEDVNANTYKHLREAVDIHIPTLYQLGLGNIVDHLDTARAAYGRCDLAHHGADTFMGHQELMGSKPGVPQKRLMSEVGATIKKNLEKHGYDVRDPVEGAPVLLVNEAVVVGDNLESEVGNIINVVGDFRKLSFEQTIEVGKVVRSSVDTSRVIVYGNKEKTSIDLILSTIKERHPGQWGVDSPKANVYGEGYQVLHLGYGVDYEKQFAHLAEKQRLPVYRIGKTADVIQASGYHNPVVSTRKVLEVYQHEYSKSERDSVFLVNVQETDLAGHKEDCLWYKEVIEEVDRFLASFIDELDEEDLLIITADHGNDPTIGHSNHTREQTPVIIVGPQVRPISIGTRQTMADLAATMADYMGVAPPQYGTSFLHQILR”, the “soluble on expression in E. coli” value was “not soluble”. With “MGHHHHHHSHMAFPPGALHPLPKRQALEKSNGTSAVFNPSVLHYQQALTSAQLQQHAAFIPTDNSEIISRNGMECQESALRITKHCYCTYYPVSSSIELPQTAC” the “soluble on expression in E. coli” value was “not soluble”. For “MSLFHFVIKGTGFSSKNLQEIKVYEETLFCIDEAGVIQEIIEPDAEAYETVLAEQKEAQRFQELPQDSYLLPGFVDLHVHAPQWAQSGTALDIPLYEWLNTYTFPLESKFADLAFAQQVYDELVTQLLANGTTTALYFATIHYEASRRLAEICAEKGQRGLIGKVVMDDLNENPEYYRDQTTQQALEETERFIQEIQTLAQQTKQGVYPVVTPRFIPSCTEEALKGLGELAAKYQVHVQSHCSESDWEHQFVQERFEKNDAQALNDFGLLTEKAVMAHAGFLEEADMNLFHETGTAVAHCPISNAYFGNAVTPIAKLVHQHQVEVGLGSDLSGGFSPSLFDNLKQAVISSRMLEDGVDATKKPEVRGVKTARITVNEAFYLATAGGGQALSLPIGKLEKGYAWDVQIINTSLSQARIPKNPGESLLDIFQKILYLARPENIREVWVQGEKVHDKNLMSATKGVEGHHHHHH”, the “soluble on expression in E. coli” value was “soluble”. With “MGSDKIHHHHHHMIGICCLFIVTSCQNREPQGASIQGKDFAQSTEKSVIMVMIDSMTADLLDAAKEEGIIPGLSFLMENGTYFDELIAPFPSMSVVIESTLITGSLPDEHKVPGLVWYHAEEDRLVDYGSTPETYMKLGLNRVLFDDLSNLNNRHLSKDVPTIHEILQDSQMSTGSVNALVYRGNTSHKVNLPEPFDTWMQGQPFETKGPDLLSFGTIIEPKVIQAKELDDDHFLDLYGLNDSYGTAVVRTLIEKNEQPQFLFLFMPDFDQATHDHGQLNLEDFEKVDHAFQDILNSYDSWEQALEENIFIVIGDHGQSQIASTASDAIIPLPTLYEEYEIASLMDAPSDGEIVIANNHRMVYVYSFQPAHSFDTLANEALEDLRIQFAAYLEDDELVIKAPEHKEPLKVKKGGSWIDPYGQTWTIEGNEQIGDVFFDHDCKRIMYGENPDLFNQLFHALDSHTSTLVLTAKPGYIFESEGAPAHIGGGEHGGIHEEDTKAAMIIAGTDKAPAHLRMVDLKDFIIRLMTEEN” the “soluble on expression in E. coli” value was “not soluble”. In the case of “MRLERVLEEARAKGYPIEDNGLGNLWVVLPRERFKEEMAHYKAMGFNFLADIVGLDYLTYPDPRPERFAVVYELVSLPGWKDGDGSRFFVRVYVPEEDPRLPTVTDLWGSANFLEREVYDLFGIVFEGHPDLRKILTPEDLEGHPLRKDYPLGETPTLFREGRYIIPAEFRAALTGKDPGLTFYKGGSRKGYRSLWADLKKAREVKG”, the “soluble on expression in E. coli” value is reported as “soluble”. In the case of “MSLRFITPEKRTIEELRFPTREAADNAVKKIADGLSFDDLVKAENKTLNDIKKGPFTENELPSYLSSEIFELKQGQISAVINDLQGPVIIRVTDITPAGPIPFEKVEDNIRQTLAQNRAADDIRNSYTEIENARFEGASEGHHHHHH”, the “soluble on expression in E. coli” value is reported as “soluble”. For “MGSSHHHHHHSSGRENLYFQGHMSHRDTLFSAPIARLGDWTFDERVAEVFPDMIQRSVPGYSNIISMIGMLAERFVQPGTQVYDLGCSLGAATLSVRRNIHHDNCKIIAIDNSPAMIERCRRHIDAYKAPTPVDVIEGDIRDIAIENASMVVLNFTLQFLEPSERQALLDKIYQGLNPGGALVLSEKFSFEDAKVGELLFNMHHDFKRANGYSELEISQKRSMLENVMLTDSVETHKARLHNAGFEHSELWFQCFNFGSLVALKAEDAA”, the “soluble on expression in E. coli” value was “soluble”. With “MVTILDRTSSDEKRIRHPEKAHRPDTEVMRKPEWIRVKAPTSKGYHETRELVRSHKLVTVCEEAGCPNIGECWEKKHATFMIMGEICTRACAFCNVATGKPNALDMDEPENVAKAVKQMGLSHVVITSVDRDDLADGGAEHFEKVIWAIRAASPTTTIEILTPDFLKKPGALERVVAAKPDVFNHNMETVPGNYLTVRPGARYFHSVRLLQRVKELDPTMFTKSGIMVGLGEERNEVLQLMDDLRSADVDFLTIGQYLQPTRKHHKVEAFVTPEEFKSYETVAYAKGFLMVSSSPLTRSSHHAGDDFERLRAAREKKLLAAAE” the “soluble on expression in E. coli” value was “not soluble”. In the case of “MGSDKIHHHHHHMRKKIVFIIRDLGYGGAQRQLITLVKNLDKQIFNTTVIFFYANGSLQKDLENNNIQTICLEKRGRWDIFGFLWRLMGHLKRIQPDSLHGYLSESNLLTIFLKPFFLSTSIIWGIRDSNISLDSYDWLDRLIFEIECLLSRFVDLIIVNSHAGQAYHLSHGFPAKKMVVIPNGIDTERFQPNSEAGLRVRTEWRISKDTILIGLIGRLDPMKDHPTFLKAVALLCKERENVCFVCVGIGTHEYAQELYQLAEELEVAEKVIWAGGRADMPDIYNALDITCSSSSYGEGFSNVIGEAMACGVPCVVTDVGDSAWIIDDTGIVVPPNNPEALKAGITSLINIISSKSYSSCHIRQRIISHFSVLNLSLKTQNSLLSINVL”, the “soluble on expression in E. coli” value is reported as “not soluble”. In the case of “MVKQRSELLFLYDVQWANPNGDPVDGNKPRIDEETGKNIVTDVRLKRTIRDYLYEYRHQEIFVREIAQDDDYIQDAKARAEDFLVKDGEKLDKSKLTLSEMKKIINDEVLRQCIDVRLFGVTLPIEKSSKEKSSITHTGPVQFKMGQSLHRVKLEYIKGTGAFASGGQMTQKTFREEYVLPYSLIAFYGVINETAARFTRLTEEDVELLVDAMWEGTKNLISRSKVGHVPRLLLRVVYQEPHFHIGELDKYISLHTEKAEEEIRDAQDYVLDVSRLIEVLAREKEKIANIELRQDERLVCNENLVDRLRQEGIVVDIR”, the “soluble on expression in E. coli” value is reported as “not soluble”. For “ENPRNVGSLDKTSKNVGTGLVGAPACGDVMKLQIQVDEKGKIVDARFKTFGCGSAIASSSLATEWVKGKTVEEALTIKNTDIAKELCLPPVKLHCSMLAEDAIKAALADYKLKQESK”, the “soluble on expression in E. coli” value was “soluble”.
